This is an account of results in PMC5585231, “Endocytic sorting motif interactions involved in Nef-mediated downmodulation of CD4 and CD3” (Nature Communications, 2017).

The test deals with T1, CD3 ζ SNID2 peptide (22-mer) (human).
T1 construct: also called second ITAM motif of CD3 ζ; source: synthetic peptide (in house, Boc chemistry, RP-HPLC)
T1 peptide: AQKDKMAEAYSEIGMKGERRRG
Kind of test: ITC; Nef (typically 200 µM) injected stepwise from the syringe into 20 µM CD3 ζ peptide in the cell; 20 mM HEPES pH 8.0, 100 mM NaCl, 25 °C; MicroCal iTC200. The conditions noted are these: both partners purified. Background: ITC needs no label: the signal is the heat of the interaction.

B1: SIVmac239 Nef (66-235) (domain or fragment)
chain: MATPWRNPAEEREKLAYRKQNMDDIDEEDDDLVGVSVRPKVPLRTMSYKLAIDMSHFIKEKGGLEGIYYSARRHRILDIYLEKEEGIIPDWQDYTSGPGIRYPKTFGWLWKLVPVNVSDEAQEDEEHYLMHPAQTSQWDDPWGEVLAWKFDPTLAYTYEAYVRYPEEFGS
notes: pGEX-4T1 with a TEV site; also called SIV-B; SIV Nef-B; source: E. coli BL21(DE3), purified (GSH resin, size exclusion chromatography)
The stoichiometry N is a count of units in the complex or per binding partner. With B1, the “stoichiometry N” value worked out at 1.07.
